The source of these data is patent US20150344570A1 (published 2015).

T1: FcγRIIa R (human, UniProt P12318 34-217)
T1 construct: extracellular domain; also called FcgRIIa R type; 2aR
T1 sequence (looked up): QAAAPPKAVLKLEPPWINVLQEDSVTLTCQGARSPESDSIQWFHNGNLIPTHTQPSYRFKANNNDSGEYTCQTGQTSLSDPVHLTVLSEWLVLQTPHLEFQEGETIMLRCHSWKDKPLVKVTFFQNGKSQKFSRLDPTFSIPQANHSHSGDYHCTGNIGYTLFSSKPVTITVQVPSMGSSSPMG

B1: GpH7-B3 variant N325_01G/GpL16-k0 (antibody, human IgG1, kappa)
heavy: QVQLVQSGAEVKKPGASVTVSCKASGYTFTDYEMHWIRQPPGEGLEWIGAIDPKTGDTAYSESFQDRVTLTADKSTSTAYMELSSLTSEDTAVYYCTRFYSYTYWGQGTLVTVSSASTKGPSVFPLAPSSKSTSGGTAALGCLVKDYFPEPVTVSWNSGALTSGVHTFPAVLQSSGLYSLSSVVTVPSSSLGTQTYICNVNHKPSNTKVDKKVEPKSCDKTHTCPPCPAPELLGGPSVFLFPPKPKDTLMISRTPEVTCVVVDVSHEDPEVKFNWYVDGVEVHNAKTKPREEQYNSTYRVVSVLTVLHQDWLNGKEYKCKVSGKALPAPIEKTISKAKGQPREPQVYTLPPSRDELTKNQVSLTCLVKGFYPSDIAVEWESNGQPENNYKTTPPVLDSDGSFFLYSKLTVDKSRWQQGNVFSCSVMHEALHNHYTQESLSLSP
light: DIVMTQSPLSLPVTPGEPASISCQASESLVHSNRNTYLHWYLQKPGQSPQLLIYKVSNRFSGVPDRFSGSGSGTDFTLKISRVEAEDVGVYYCSQNTHVPPTFGQGTKVEIERTVAAPSVFIFPPSDEQLKSGTASVVCLLNNFYPREAKVQWKVDNALQSGNSQESVTEQDSKDSTYSLSSTLTLSKADYEKHKVYACEVTHQGLSSPVTKSFNRGEC
notes: also called Ho Ab N325_01G
B2: GpH7-B3 variant A330_12R/GpL16-k0 (antibody, human IgG1, kappa)
heavy: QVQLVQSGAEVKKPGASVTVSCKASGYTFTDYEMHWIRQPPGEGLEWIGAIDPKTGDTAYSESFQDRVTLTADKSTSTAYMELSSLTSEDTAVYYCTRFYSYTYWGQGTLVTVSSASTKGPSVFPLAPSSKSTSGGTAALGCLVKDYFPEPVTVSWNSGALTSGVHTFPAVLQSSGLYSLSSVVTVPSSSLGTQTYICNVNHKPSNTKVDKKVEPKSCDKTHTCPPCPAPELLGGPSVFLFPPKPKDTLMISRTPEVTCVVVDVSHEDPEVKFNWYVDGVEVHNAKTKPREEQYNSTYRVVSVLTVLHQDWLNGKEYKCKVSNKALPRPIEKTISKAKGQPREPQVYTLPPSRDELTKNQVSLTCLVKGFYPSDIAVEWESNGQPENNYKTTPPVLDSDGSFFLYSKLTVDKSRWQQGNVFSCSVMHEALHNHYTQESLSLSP
light: DIVMTQSPLSLPVTPGEPASISCQASESLVHSNRNTYLHWYLQKPGQSPQLLIYKVSNRFSGVPDRFSGSGSGTDFTLKISRVEAEDVGVYYCSQNTHVPPTFGQGTKVEIERTVAAPSVFIFPPSDEQLKSGTASVVCLLNNFYPREAKVQWKVDNALQSGNSQESVTEQDSKDSTYSLSSTLTLSKADYEKHKVYACEVTHQGLSSPVTKSFNRGEC
notes: also called Ho Ab A330_12R
B3: GpH7-B3 variant A330_19Q/GpL16-k0 (antibody, human IgG1, kappa)
heavy: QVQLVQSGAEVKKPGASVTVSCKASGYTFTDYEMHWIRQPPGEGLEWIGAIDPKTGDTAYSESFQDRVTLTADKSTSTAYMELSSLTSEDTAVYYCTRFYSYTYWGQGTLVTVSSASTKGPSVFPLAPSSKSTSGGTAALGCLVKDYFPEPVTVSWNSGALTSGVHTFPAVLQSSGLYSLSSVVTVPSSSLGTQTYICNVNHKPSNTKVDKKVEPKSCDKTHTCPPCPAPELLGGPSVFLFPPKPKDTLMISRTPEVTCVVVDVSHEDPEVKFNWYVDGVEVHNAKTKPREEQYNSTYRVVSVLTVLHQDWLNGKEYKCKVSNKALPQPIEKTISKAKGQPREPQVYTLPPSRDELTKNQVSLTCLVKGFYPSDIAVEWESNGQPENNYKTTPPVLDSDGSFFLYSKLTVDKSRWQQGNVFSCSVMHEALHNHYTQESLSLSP
light: DIVMTQSPLSLPVTPGEPASISCQASESLVHSNRNTYLHWYLQKPGQSPQLLIYKVSNRFSGVPDRFSGSGSGTDFTLKISRVEAEDVGVYYCSQNTHVPPTFGQGTKVEIERTVAAPSVFIFPPSDEQLKSGTASVVCLLNNFYPREAKVQWKVDNALQSGNSQESVTEQDSKDSTYSLSSTLTLSKADYEKHKVYACEVTHQGLSSPVTKSFNRGEC
notes: also called Ho Ab A330_19Q
B4: GpH7-B3 variant A330_15Y/GpL16-k0 (antibody, human IgG1, kappa)
heavy: not shown
light: DIVMTQSPLSLPVTPGEPASISCQASESLVHSNRNTYLHWYLQKPGQSPQLLIYKVSNRFSGVPDRFSGSGSGTDFTLKISRVEAEDVGVYYCSQNTHVPPTFGQGTKVEIERTVAAPSVFIFPPSDEQLKSGTASVVCLLNNFYPREAKVQWKVDNALQSGNSQESVTEQDSKDSTYSLSSTLTLSKADYEKHKVYACEVTHQGLSSPVTKSFNRGEC
notes: also called Ho Ab A330_15Y
B5: GpH7-B3 variant E269_09D/GpL16-k0 (antibody, human IgG1, kappa)
heavy: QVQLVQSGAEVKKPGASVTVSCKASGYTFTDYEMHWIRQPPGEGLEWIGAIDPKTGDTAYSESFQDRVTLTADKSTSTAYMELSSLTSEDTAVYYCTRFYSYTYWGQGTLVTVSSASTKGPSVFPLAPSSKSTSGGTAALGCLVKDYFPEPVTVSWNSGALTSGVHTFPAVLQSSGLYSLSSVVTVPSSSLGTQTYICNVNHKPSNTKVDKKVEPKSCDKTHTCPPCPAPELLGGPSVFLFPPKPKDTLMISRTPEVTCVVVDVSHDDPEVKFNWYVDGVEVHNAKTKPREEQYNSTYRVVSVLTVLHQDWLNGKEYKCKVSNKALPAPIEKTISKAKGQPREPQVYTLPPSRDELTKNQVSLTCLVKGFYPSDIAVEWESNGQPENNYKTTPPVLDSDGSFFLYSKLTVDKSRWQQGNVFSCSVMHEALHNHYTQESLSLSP
light: DIVMTQSPLSLPVTPGEPASISCQASESLVHSNRNTYLHWYLQKPGQSPQLLIYKVSNRFSGVPDRFSGSGSGTDFTLKISRVEAEDVGVYYCSQNTHVPPTFGQGTKVEIERTVAAPSVFIFPPSDEQLKSGTASVVCLLNNFYPREAKVQWKVDNALQSGNSQESVTEQDSKDSTYSLSSTLTLSKADYEKHKVYACEVTHQGLSSPVTKSFNRGEC
notes: also called Ho Ab E269_09D
B6: GpH7-B3 variant A327_10E/GpL16-k0 (antibody, human IgG1, kappa)
heavy: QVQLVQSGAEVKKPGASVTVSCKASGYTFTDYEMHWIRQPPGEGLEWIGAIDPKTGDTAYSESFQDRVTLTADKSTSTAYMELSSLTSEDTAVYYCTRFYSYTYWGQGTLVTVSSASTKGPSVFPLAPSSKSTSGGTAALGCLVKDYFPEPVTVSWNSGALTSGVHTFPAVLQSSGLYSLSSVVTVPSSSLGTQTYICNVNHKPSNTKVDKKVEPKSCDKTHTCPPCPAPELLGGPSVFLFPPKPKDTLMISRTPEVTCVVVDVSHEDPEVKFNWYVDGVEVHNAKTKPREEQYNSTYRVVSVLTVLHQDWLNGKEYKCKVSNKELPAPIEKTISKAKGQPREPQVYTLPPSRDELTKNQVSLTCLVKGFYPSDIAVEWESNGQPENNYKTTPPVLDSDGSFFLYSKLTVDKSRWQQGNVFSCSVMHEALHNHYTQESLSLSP
light: DIVMTQSPLSLPVTPGEPASISCQASESLVHSNRNTYLHWYLQKPGQSPQLLIYKVSNRFSGVPDRFSGSGSGTDFTLKISRVEAEDVGVYYCSQNTHVPPTFGQGTKVEIERTVAAPSVFIFPPSDEQLKSGTASVVCLLNNFYPREAKVQWKVDNALQSGNSQESVTEQDSKDSTYSLSSTLTLSKADYEKHKVYACEVTHQGLSSPVTKSFNRGEC
notes: also called Ho Ab A327_10E
B7: GpH7-B3 variant A330_11K/GpL16-k0 (antibody, human IgG1, kappa)
heavy: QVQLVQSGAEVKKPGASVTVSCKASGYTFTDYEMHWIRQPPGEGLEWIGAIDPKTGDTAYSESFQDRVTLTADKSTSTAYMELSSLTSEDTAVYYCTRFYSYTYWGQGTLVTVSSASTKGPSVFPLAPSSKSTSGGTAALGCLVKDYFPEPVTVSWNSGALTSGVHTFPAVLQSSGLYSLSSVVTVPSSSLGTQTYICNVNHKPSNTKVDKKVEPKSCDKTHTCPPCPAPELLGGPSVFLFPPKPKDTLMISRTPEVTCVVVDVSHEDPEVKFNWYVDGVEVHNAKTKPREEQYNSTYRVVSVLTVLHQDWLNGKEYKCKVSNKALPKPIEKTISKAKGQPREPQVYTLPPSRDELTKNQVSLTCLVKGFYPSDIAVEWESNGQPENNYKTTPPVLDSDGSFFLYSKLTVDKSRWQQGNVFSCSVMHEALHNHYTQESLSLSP
light: DIVMTQSPLSLPVTPGEPASISCQASESLVHSNRNTYLHWYLQKPGQSPQLLIYKVSNRFSGVPDRFSGSGSGTDFTLKISRVEAEDVGVYYCSQNTHVPPTFGQGTKVEIERTVAAPSVFIFPPSDEQLKSGTASVVCLLNNFYPREAKVQWKVDNALQSGNSQESVTEQDSKDSTYSLSSTLTLSKADYEKHKVYACEVTHQGLSSPVTKSFNRGEC
notes: also called Ho Ab A330_11K
B8: GpH7-B3 variant E333_05P/GpL16-k0 (antibody, human IgG1, kappa)
heavy: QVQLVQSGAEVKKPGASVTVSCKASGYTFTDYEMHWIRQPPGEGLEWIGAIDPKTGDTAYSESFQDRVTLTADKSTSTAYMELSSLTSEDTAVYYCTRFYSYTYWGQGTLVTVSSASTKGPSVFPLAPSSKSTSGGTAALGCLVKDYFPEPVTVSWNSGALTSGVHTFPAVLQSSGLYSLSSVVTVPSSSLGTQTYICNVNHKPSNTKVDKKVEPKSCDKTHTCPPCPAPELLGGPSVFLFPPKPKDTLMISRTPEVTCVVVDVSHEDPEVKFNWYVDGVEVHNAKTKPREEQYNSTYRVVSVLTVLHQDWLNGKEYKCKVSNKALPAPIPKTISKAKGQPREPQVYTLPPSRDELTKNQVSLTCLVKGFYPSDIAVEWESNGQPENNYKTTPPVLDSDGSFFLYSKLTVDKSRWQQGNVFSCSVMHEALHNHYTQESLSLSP
light: DIVMTQSPLSLPVTPGEPASISCQASESLVHSNRNTYLHWYLQKPGQSPQLLIYKVSNRFSGVPDRFSGSGSGTDFTLKISRVEAEDVGVYYCSQNTHVPPTFGQGTKVEIERTVAAPSVFIFPPSDEQLKSGTASVVCLLNNFYPREAKVQWKVDNALQSGNSQESVTEQDSKDSTYSLSSTLTLSKADYEKHKVYACEVTHQGLSSPVTKSFNRGEC
notes: also called Ho Ab E333_05P
B9: GpH7-B3 variant A330_01G/GpL16-k0 (antibody, human IgG1, kappa)
heavy: not shown
light: DIVMTQSPLSLPVTPGEPASISCQASESLVHSNRNTYLHWYLQKPGQSPQLLIYKVSNRFSGVPDRFSGSGSGTDFTLKISRVEAEDVGVYYCSQNTHVPPTFGQGTKVEIERTVAAPSVFIFPPSDEQLKSGTASVVCLLNNFYPREAKVQWKVDNALQSGNSQESVTEQDSKDSTYSLSSTLTLSKADYEKHKVYACEVTHQGLSSPVTKSFNRGEC
notes: also called Ho Ab A330_01G
B10: GpH7-B3 variant E333_08L/GpL16-k0 (antibody, human IgG1, kappa)
heavy: not shown
light: DIVMTQSPLSLPVTPGEPASISCQASESLVHSNRNTYLHWYLQKPGQSPQLLIYKVSNRFSGVPDRFSGSGSGTDFTLKISRVEAEDVGVYYCSQNTHVPPTFGQGTKVEIERTVAAPSVFIFPPSDEQLKSGTASVVCLLNNFYPREAKVQWKVDNALQSGNSQESVTEQDSKDSTYSLSSTLTLSKADYEKHKVYACEVTHQGLSSPVTKSFNRGEC
notes: also called Ho Ab E333_08L
B11: GpH7-B3 variant E333_04F/GpL16-k0 (antibody, human IgG1, kappa)
heavy: not shown
light: DIVMTQSPLSLPVTPGEPASISCQASESLVHSNRNTYLHWYLQKPGQSPQLLIYKVSNRFSGVPDRFSGSGSGTDFTLKISRVEAEDVGVYYCSQNTHVPPTFGQGTKVEIERTVAAPSVFIFPPSDEQLKSGTASVVCLLNNFYPREAKVQWKVDNALQSGNSQESVTEQDSKDSTYSLSSTLTLSKADYEKHKVYACEVTHQGLSSPVTKSFNRGEC
notes: also called Ho Ab E333_04F
B12: GpH7-B3 variant A327_09D/GpL16-k0 (antibody, human IgG1, kappa)
heavy: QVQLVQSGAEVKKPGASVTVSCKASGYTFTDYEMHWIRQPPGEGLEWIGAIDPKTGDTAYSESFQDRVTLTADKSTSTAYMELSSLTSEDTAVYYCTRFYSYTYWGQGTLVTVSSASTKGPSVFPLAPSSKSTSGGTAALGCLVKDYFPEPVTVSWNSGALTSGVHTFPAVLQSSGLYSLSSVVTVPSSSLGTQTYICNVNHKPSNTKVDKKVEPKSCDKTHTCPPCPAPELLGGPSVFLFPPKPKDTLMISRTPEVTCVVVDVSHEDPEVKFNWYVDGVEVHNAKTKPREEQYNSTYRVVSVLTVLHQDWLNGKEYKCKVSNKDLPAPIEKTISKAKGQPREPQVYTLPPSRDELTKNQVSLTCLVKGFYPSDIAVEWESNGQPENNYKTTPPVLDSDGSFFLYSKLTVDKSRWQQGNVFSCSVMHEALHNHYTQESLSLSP
light: DIVMTQSPLSLPVTPGEPASISCQASESLVHSNRNTYLHWYLQKPGQSPQLLIYKVSNRFSGVPDRFSGSGSGTDFTLKISRVEAEDVGVYYCSQNTHVPPTFGQGTKVEIERTVAAPSVFIFPPSDEQLKSGTASVVCLLNNFYPREAKVQWKVDNALQSGNSQESVTEQDSKDSTYSLSSTLTLSKADYEKHKVYACEVTHQGLSSPVTKSFNRGEC
notes: also called Ho Ab A327_09D
B13: GpH7-B3 variant E333_07I/GpL16-k0 (antibody, human IgG1, kappa)
heavy: not shown
light: DIVMTQSPLSLPVTPGEPASISCQASESLVHSNRNTYLHWYLQKPGQSPQLLIYKVSNRFSGVPDRFSGSGSGTDFTLKISRVEAEDVGVYYCSQNTHVPPTFGQGTKVEIERTVAAPSVFIFPPSDEQLKSGTASVVCLLNNFYPREAKVQWKVDNALQSGNSQESVTEQDSKDSTYSLSSTLTLSKADYEKHKVYACEVTHQGLSSPVTKSFNRGEC
notes: also called Ho Ab E333_07I
B14: GpH7-B3 variant E333_15Y/GpL16-k0 (antibody, human IgG1, kappa)
heavy: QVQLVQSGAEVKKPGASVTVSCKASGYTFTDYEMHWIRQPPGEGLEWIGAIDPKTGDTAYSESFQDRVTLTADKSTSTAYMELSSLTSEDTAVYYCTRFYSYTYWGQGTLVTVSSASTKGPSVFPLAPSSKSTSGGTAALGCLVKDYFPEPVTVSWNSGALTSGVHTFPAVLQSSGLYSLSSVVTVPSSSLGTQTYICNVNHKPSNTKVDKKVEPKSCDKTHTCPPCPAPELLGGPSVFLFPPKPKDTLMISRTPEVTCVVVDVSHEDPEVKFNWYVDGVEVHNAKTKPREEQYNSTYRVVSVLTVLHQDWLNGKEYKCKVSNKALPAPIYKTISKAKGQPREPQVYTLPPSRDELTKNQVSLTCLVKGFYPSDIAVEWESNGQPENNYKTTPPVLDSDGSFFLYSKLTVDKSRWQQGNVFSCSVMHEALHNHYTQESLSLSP
light: DIVMTQSPLSLPVTPGEPASISCQASESLVHSNRNTYLHWYLQKPGQSPQLLIYKVSNRFSGVPDRFSGSGSGTDFTLKISRVEAEDVGVYYCSQNTHVPPTFGQGTKVEIERTVAAPSVFIFPPSDEQLKSGTASVVCLLNNFYPREAKVQWKVDNALQSGNSQESVTEQDSKDSTYSLSSTLTLSKADYEKHKVYACEVTHQGLSSPVTKSFNRGEC
notes: also called Ho Ab E333_15Y
B15: GpH7-B3 variant A330_05P/GpL16-k0 (antibody, human IgG1, kappa)
heavy: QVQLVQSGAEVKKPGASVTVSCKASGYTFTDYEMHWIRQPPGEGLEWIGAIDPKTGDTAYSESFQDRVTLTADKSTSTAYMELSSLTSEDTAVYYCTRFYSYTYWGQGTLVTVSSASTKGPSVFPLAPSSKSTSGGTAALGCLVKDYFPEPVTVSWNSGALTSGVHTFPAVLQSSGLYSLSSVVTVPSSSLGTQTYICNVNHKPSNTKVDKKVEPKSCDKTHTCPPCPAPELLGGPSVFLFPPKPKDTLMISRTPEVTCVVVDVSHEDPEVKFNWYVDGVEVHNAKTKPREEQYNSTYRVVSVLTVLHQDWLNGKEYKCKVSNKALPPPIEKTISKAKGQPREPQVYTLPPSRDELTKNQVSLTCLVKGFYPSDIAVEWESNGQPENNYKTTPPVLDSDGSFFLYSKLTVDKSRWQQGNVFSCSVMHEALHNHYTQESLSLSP
light: DIVMTQSPLSLPVTPGEPASISCQASESLVHSNRNTYLHWYLQKPGQSPQLLIYKVSNRFSGVPDRFSGSGSGTDFTLKISRVEAEDVGVYYCSQNTHVPPTFGQGTKVEIERTVAAPSVFIFPPSDEQLKSGTASVVCLLNNFYPREAKVQWKVDNALQSGNSQESVTEQDSKDSTYSLSSTLTLSKADYEKHKVYACEVTHQGLSSPVTKSFNRGEC
notes: also called Ho Ab A330_05P
B16: GpH7-B3 variant E333_09D/GpL16-k0 (antibody, human IgG1, kappa)
heavy: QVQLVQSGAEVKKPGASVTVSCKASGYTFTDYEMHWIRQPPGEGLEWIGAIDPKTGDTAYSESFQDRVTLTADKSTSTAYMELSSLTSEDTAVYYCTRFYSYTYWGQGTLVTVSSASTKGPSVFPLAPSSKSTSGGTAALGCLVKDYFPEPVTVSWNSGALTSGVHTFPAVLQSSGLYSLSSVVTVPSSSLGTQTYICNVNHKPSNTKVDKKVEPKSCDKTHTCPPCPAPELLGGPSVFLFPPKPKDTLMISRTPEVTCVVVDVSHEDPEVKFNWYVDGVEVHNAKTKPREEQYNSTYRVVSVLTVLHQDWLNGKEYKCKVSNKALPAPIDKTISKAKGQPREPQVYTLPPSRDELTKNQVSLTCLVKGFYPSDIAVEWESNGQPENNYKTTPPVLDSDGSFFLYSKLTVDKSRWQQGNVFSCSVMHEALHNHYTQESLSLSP
light: DIVMTQSPLSLPVTPGEPASISCQASESLVHSNRNTYLHWYLQKPGQSPQLLIYKVSNRFSGVPDRFSGSGSGTDFTLKISRVEAEDVGVYYCSQNTHVPPTFGQGTKVEIERTVAAPSVFIFPPSDEQLKSGTASVVCLLNNFYPREAKVQWKVDNALQSGNSQESVTEQDSKDSTYSLSSTLTLSKADYEKHKVYACEVTHQGLSSPVTKSFNRGEC
notes: also called Ho Ab E333_09D

The assay has as its target T1, FcγRIIa R. The experiment in a line: SPR (Biacore), captured antibody, FcγR as analyte; relative binding activity. The method, then:
Analysis of interaction between objective antibody and the FcγR was carried out using Biacore T100 (GE Healthcare). HBS-EP+ (GE Healthcare) was used as the running buffer, and the measurement temperature was set to 25° C. Chips produced by immobilizing the antigen peptide by the amine coupling method to a Series S Sencor Chip CM5 (GE Healthcare), or alternatively, chips produced by allowing preliminarily biotinylated antigen peptides to interact with and immobilize onto a Series S Sensor Chip SA (certified) (GE Healthcare) were used. Antibodies of interest were captured onto an antigen peptide-immobilized chip, and allowed to interact to each FcγR diluted with running buffer. To regenerate and repeatedly use the chip, the antibodies captured on the chip were washed off by reacting 10 mM glycine-HCl, pH 1.5.
(In general: SPR reads the build-up and loss of mass on a sensor chip optically.)
For B1, the Ho/Con_2aR was 26.7 % (GpH7-B3/GpL16-k0 = 100).

For the molecule B2, the Ho/Con_2aR is 101 % (GpH7-B3/GpL16-k0 = 100).

For the molecule B3, the Ho/Con_2aR is 99.1 % (GpH7-B3/GpL16-k0 = 100).

Take B4: the Ho/Con_2aR is 87.5 % (GpH7-B3/GpL16-k0 = 100).

Take B5: the Ho/Con_2aR is 103 % (GpH7-B3/GpL16-k0 = 100).

In the case of B6, the Ho/Con_2aR is 104 % (GpH7-B3/GpL16-k0 = 100).

In the case of B7, the Ho/Con_2aR was 106 % (GpH7-B3/GpL16-k0 = 100).

For B8, the Ho/Con_2aR was 99.9 % (GpH7-B3/GpL16-k0 = 100).

B9: the Ho/Con_2aR is 106 % (GpH7-B3/GpL16-k0 = 100).

With B10, the Ho/Con_2aR is 97.1 % (GpH7-B3/GpL16-k0 = 100).

Turning to B11, the Ho/Con_2aR was 92.4 % (GpH7-B3/GpL16-k0 = 100).

As for B12, the Ho/Con_2aR is 120 % (GpH7-B3/GpL16-k0 = 100).

For B13, the Ho/Con_2aR was 98.3 % (GpH7-B3/GpL16-k0 = 100).

Turning to B14, the Ho/Con_2aR is 96.2 % (GpH7-B3/GpL16-k0 = 100).

In the case of B15, the Ho/Con_2aR was 36.2 % (GpH7-B3/GpL16-k0 = 100).

For the molecule B16, the Ho/Con_2aR is 96.5 % (GpH7-B3/GpL16-k0 = 100).
